According to US20150225472A1:

Molecular target: Light chain of BDD-Factor VIII (FVIII: C light chain) expressed in Pichia pastoris GS115 (Homo sapiens (Human)) (UniProt P00451)
Assay: cell-based or functional assay

Sequence of Light chain of BDD-Factor VIII (FVIII: C light chain) expressed in Pichia pastoris GS115 (Homo sapiens (Human)) (P00451 other isoform, or with tags, fused parts or gaps limits assumed): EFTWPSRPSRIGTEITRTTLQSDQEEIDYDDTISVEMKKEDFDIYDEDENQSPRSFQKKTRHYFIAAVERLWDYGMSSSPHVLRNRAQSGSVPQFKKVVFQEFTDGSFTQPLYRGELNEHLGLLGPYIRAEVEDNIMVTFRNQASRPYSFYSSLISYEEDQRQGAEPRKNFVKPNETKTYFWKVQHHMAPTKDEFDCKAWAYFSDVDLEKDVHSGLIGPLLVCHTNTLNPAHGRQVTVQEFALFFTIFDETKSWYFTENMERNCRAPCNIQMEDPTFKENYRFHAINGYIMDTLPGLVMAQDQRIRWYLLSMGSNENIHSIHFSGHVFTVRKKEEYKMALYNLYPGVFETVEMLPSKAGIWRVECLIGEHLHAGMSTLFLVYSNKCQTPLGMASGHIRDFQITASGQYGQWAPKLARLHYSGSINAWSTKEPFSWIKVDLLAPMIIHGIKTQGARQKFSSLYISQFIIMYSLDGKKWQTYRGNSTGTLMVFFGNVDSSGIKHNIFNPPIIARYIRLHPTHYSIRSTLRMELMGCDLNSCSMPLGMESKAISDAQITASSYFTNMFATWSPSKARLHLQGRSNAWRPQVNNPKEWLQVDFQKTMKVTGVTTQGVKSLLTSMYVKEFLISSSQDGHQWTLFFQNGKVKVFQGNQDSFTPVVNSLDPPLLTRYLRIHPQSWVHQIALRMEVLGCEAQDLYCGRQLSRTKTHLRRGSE

## Heavy chain of BDD-Factor VIII (FVIII: C heavy chain, A1 and A2 domains) expressed in Pichia pastoris GS115 (from UniProt P00451 20-759)
  Specific Activity[IU/mg], chromogenic assay: 7660 IU/mg
  Specific Activity[IU/mg], one stage clotting assay: 132 IU/mg
